The values below come from patent US20220332804A1 (CSL INNOVATION, published 2022).

Positions count from the first letter of the chain named.

Holding throughout (assay): SPR, KD relative to WT C2;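 also: biacore SPR at 37 °C, anti-C2 mAbs captured via immobilised goat anti-human IgG, C2 alanine or serine surface mutants as analytes, 1:1 model fitted, double-referenced sensograms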
One test concerns the target T1, human C2 K244A (human, UniProt P06681 21-752).
T1 sequence: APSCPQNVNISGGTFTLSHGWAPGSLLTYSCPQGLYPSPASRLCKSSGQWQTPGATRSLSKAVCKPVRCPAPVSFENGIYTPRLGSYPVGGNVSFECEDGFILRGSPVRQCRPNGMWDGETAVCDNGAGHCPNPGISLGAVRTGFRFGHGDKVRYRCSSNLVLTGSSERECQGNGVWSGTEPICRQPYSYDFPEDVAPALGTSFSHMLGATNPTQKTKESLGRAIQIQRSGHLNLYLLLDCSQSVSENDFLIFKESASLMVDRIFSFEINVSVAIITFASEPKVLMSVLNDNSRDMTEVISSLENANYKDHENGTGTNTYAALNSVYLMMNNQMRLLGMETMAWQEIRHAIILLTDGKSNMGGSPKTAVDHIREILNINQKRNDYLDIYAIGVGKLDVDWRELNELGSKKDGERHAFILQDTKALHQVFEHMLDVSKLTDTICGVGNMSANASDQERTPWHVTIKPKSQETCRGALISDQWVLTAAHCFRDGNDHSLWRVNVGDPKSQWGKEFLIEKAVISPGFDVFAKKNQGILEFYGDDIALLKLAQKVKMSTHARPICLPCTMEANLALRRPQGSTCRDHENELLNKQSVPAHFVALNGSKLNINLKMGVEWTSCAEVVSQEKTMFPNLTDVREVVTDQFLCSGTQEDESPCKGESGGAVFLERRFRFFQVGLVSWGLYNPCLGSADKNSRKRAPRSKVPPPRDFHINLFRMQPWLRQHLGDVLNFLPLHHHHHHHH

For a further test, the target named is T2, human C2 N325A (human, UniProt P06681 21-752).
T2 sequence: T1 sequence with A224K, N305A

The target of another test is T3, human C2 L271A (human, UniProt P06681 21-752).
T3 sequence: T1 sequence with A224K, L251A

For the next test, the target named is T4, human C2 Q447A (human, UniProt P06681 21-752).
T4 sequence: T1 sequence with A224K, Q427A

Procedure for human C2 K244A: (§1) Surface plasmon resonance (SPR, Biacore) was used for all binding affinity analyses. In brief, goat anti-human IgG was directly immobilised onto the carboxymethyl dextran surface of CM5 sensorchips to approximately 12,000 RU using standard NHS/EDC chemistry at pH 5. The immobilised antibody surface was pre-conditioned with ten injections of polyclonal human IgG (Privigen 60 s) prepared at 1 μg/mL. Ligands (anti-C2 mAbs) were captured at the beginning of each cycle as described below. An adjacent spot or flow cell in which only Polyclonal IgG was capture was used as a reference surface. The goat anti-human IgG Fc antibody surface was regenerate in 100 mM H3PO4, injected for 45 seconds at the end of each cycle. Experiments were performed at 37° C. and the flow rate of each experiment was kept constant at 30 μL/min.
(§2) Sensogram data was double-referenced against a reference anti-IgG surface (i.e. minus anti-C2 mAb) and blank buffer injections obtained within each experiment. The binding data was fit to 1:1 (kinetic or steady-state) model using local Rmax and null refraction index (RI=0) when appropriate. Buffers and solutions were filtered (0.22 μm) prior to use.
Procedure for human C2 L271A: as §1, §2
Procedure for human C2 N325A: as §1, §2
Procedure for human C2 Q447A: as §1, §2

B1: RF16-226 (antibody, human IgG4 S228P, lambda)
heavy: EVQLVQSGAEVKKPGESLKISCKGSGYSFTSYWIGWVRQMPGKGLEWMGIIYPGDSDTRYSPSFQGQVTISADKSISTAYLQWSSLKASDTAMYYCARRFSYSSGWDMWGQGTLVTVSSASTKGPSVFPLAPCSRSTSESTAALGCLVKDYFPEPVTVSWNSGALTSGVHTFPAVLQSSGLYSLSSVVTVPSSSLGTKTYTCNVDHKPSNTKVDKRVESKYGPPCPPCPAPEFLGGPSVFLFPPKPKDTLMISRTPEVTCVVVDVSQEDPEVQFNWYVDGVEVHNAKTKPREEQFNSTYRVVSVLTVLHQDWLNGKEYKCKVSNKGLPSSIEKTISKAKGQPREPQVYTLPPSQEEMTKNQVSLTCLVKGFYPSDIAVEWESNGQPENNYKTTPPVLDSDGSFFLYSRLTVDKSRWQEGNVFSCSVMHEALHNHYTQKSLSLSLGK
light: SYELTQPPSVSVSPGQTARITCSGDALTSKYVAWYQQKSGLAPLLVIYEDTRRPSGIPAKFSGSSSGSVATLTISGAHGDDEADYYCYSTDASGHQRVFGGGTKLTVLSQPKAAPSVTLFPPSSEELQANKATLVCLISDFYPGAVTVAWKADGSPVKAGVETTKPSKQSNNKYAASSYLSLTPEQWKSHRSYSCQVTHEGSTVEKTVAPTECS
notes: pH-dependent anti-C2 antibody from a phage display library; also called WT
On to B1, for which the Fold diff worked out at 2 fold with human C2 K244A, 5 fold with human C2 N325A, 1 fold with human C2 L271A and 1 fold with human C2 Q447A.
